{
  "source": "patent US20160208226A1",
  "about": "“Transaminase Biocatalysts” (COMMONWEALTH SCIENTIFIC AND INDUSTRIAL RESEARCH ORGANISATION, priority 2013, published 2016)",
  "molecules": {"B1": {"name": "p7: pyruvate: ω-amino acid transaminase from Pseudomonas sp., amino acid sequence SEQ ID NO:2 (protein, listed as Pseudomonas sp.)", "chain": "MGSSHHHHHHSSGLVPRGSHMTDYAKLFEQDRAHFMHPSTHAHDHASGALPGRIITGASGVRIRDHQGRELLDAFAGLYCVNIGYGRLEVADAIHEQAKQLAYYHTYVGHASEAIIELSARIIRDWAPAGMKKVYYGLSGSDANETQVKLVRYYNNVLGRPQKKKIISRQRGYHGSGIVTGSLTGLASFHQHFDLPVEGVKHTLCPHFYKAPAGMDEAAFVRHCAQELENLILAEGPDTVAAFIGEPVMGTGGIIVPPKGYWEAIQAVLAKYDVLLIADEVVCAFGRLGDKMGSQRHAMRPDLITTAKGLTSAYAPLSAVIVGEKVWDVIDSASTREGAMGHGWTYSGHPICAAAALANLDILERENITANAADVGGYLNQQLRQAFEGHPLVGEVRGDGMLAALEFMADREARTPFDAALKVGPKVSAACLERGMIARAMPHGDILGFAPPLVLSRAEADEVVGIAKAAVDAVAAEVL"}, "B2": {"name": "p7N6: de novo peptide sequence based on p7, produced by ancestral reconstruction; SEQ ID NO:7 (protein)", "chain": "MTDFDQLFEQDRAHFMHPSTHAHDHASGALPGRIITGASGIRIRDHEGRELIDAFAGLYCVNIGYGRTEVADAIYKQAKELAYYHTYVGHSTEAIIELSSRIIRDWAPAGMKKVYYGLSGSDANETQIKLVRYYNNVLGRPQKKKIISRQRGYHGSGIMTGSLTGLPSFHQHFDLPVEGIKHTVCPHWYKAPAGMDEAAFVRYCADELEKLILAEGPDTVAAFIGEPVMGTGGIIVPPKGYWEAIQAVLNKYDVLLIADEVVCAFGRLGSKMGSQRYGMRPDLITTAKGLTSAYAPLSAVIVGEKVWDVIEKASQKEGAMGHGWTYSGHPICAAAALANLDILERENLTANAADVGAYLNQRLRETFEGHPLVGEVRGDGMLAALEFMADREARTPFDPALKVGPKVSAACLEDGMIARAMPHGDILGFAPPLVLTRAEADEIVGIAKAAVDEVAGEVL", "modifications": "Molecule produced by ancestral reconstruction"}, "B3": {"name": "p4: pyruvate: ω-amino acid transaminase from Pseudomonas sp., amino acid sequence SEQ ID NO:6 (protein, listed as Pseudomonas sp.)", "chain": "MTKQTSAQTQHWQALSREHHLAPFTDYKQLNEKGARIITKAEGVYLWDSEGNKILDGMAGLWCMNVGYGRKELAEVAYKQMLELPYYNLFFQTAHPPALELAKAIADIAPEGMNHVFFTGSGSESNDTVLRMVRHYWSIKGKPQKKVVIGRWNGYHGSTVAGVSLGGMKALHSQGDLPIPGIVHIAQPYWYGEGGDMSAEEFGVWAAEQLEKKILEVGEENVAAFIAEPIQGAGGVIVPPDTYWPKIREILAKYEILFIADEVICGFGRTGEWFGSQYYGNAPDLMPIAKGLTSGYIPMGGVIVRDEIVDTLNEGGEFYHGFTYSGHPVAAAVALENIRILREEKIVETVKAETAPYLQKRWQELADHPLVGEARGVGMVGALELVKNKKTRERFENGVGMLCREHCFRNGLIMRAVGDTMIISPPLVITKPEIDELITLARKCLDQTAAVALS"}, "B4": {"name": "p7N17: de novo peptide sequence based on p7, produced by ancestral reconstruction; SEQ ID NO:10 (protein)", "chain": "MTSLDQLFEEDRAHFMHPSTHAHDHASGALPGKIVTGGKGIRIEDHQGREYIDAFAGLYCVNIGYGRTEVADAIYEQAKQLAYYHTYVGHSTDAIIELSSRIIRDWAPAGMKKVYYGMSGSDANETQIKIVWYYNNVLGRPNKKKIISRERGYHGSGIVTGSLTGLPSFHQHFDLPIDRVKHTVCPHWYKAPAGMSEAQFVAYCVEELEKLIAREGADTIAAFIAEPVMGTGGIIAPPQGYWEAIQAVLRKHDILLISDEVVCGFGRLGSKMGAQHYGIKPDLITVAKGLTSAYAPLSGVIVGEKVWDVIEKGSQEHGPMGHGWTYSGHPICAAAALANLDILERENLTGNAADVGAYLQQRLHEAFGAHPLVGEVRGVGMLAALEFMADKDARTPFDPALKVGPKVSAAALEDGVIARAMPHGDILGFAPPLVTTRAEVDEIVGIVKQAVDEVADEVL", "modifications": "Molecule produced by ancestral reconstruction"}, "B5": {"name": "p7N43: de novo peptide sequence based on p7, produced by ancestral reconstruction; SEQ ID NO:11 (protein)", "chain": "MTSLEQLLEMDRAHFMHPSTHAYDHASGALPGRIITGGKGIRIEDHEGREYIDAFAGLYCVNIGYGREEVADAIYEQAKQLAYYHTYVGHSNDPVIELSSRIIEDWAPAGMKKVFYGMSGSDANETQIKLVWYYNNVLGRPNKKKIIARERSYHGSGIVTGSLTGLPSFHQHFDLPIDRVKHTVCPHWYNAPPGMSEAQFVAYCVEELEKLIAREGADTIAAFIAEPVMGTGGIVPPPQGYWEAIQAVLRKHDILLIADEVVCGFGRLGSKTGSEHYGIKPDLITVAKGLTSAYAPLSAVIVSEKVWDVIEKGSREHGVMGHGWTYSGHPVCAAAALANLDILERENLTGNAADVGAYLQQRLHEAFGAHPLVGEVRGVGMLAALEFMADKGARTPFDPALKVSQKVAAAALEDGLIVRALPHGDILGFAPPLVTTRAEVDEIVAIAKEAFDEVADAVL", "modifications": "Molecule produced by ancestral reconstruction"}, "B6": {"name": "p7N16: de novo peptide sequence based on p7, produced by ancestral reconstruction; SEQ ID NO:9 (protein)", "chain": "MQSLDQLFEMDRAHFMHPSTHAHDHASGALPGRIITGGKGIRIEDHEGREYIDAFAGLYCVNIGYGRTEVADAIYEQAKQLAYYHTYVGHSTDAIIELSSRIIRDWAPAGMKKVYYGMSGSDANETQIKLVWYYNNVLGRPNKKKIISRERGYHGSGIVTGSLTGLPSFHQHFDLPIDRVKHTVCPHWYRAPAGMSEAQFVAYCVEELEKLIAREGADTIAAFIAEPVMGTGGIIPPPQGYWEAIQAVLRKHDILLIADEVVCGFGRLGSKMGSQHYGIKPDLITVAKGLTSAYAPLSGVIVGEKVWDVIEKGSQEHGPMGHGWTYSGHPICAAAALANLDILERENLTGNAADVGAYLQQRLHEAFGAHPLVGEVRGVGMLAALEFMADKDARTPFDPALKVGPKVSAAALEDGMIARAMPHGDILGFAPPLVTTRAEVDEIVGIAKQAVDEVADEVL", "modifications": "Molecule produced by ancestral reconstruction"}, "B7": {"name": "p7N15: de novo peptide sequence based on p7, produced by ancestral reconstruction; SEQ ID NO:8 (protein)", "chain": "MTDLDQLFEMDRAHFMHPSTHAHDHASGALPGRIITGGKGIRIQDHEGREYIDAFAGLYCVNIGYGRTEVADAIYEQAKELAYYHTYVGHSTEAIIELSSRIIRDWAPAGMKKVYYGMSGSDANETQIKLVWYYNNVLGRPQKKKIISRQRGYHGSGIMTGSLTGLPSFHQHFDLPIERIKHTVCPHWYKAPAGMSEAQFVRYCADELEKLILAEGPDTVAAFIGEPVMGTGGIIPPPQGYWEAIQAVLNKYDILLIADEVVCGFGRLGSKMGSQHYGMKPDLITVAKGLTSAYAPLSGVIVGEKVWDVIEKGSQEHGPMGHGWTYSGHPICAAAALANLDILERENLTGNAADVGAYLQQRLRETFGGHPLVGEVRGVGMLAALEFMADKDARTPFDPALKVGPKVSAACLEDGMIARAMPHGDILGFAPPLVITRAEVDEIVGIAKQAVDEVADEVL", "modifications": "Molecule produced by ancestral reconstruction"}, "B8": {"name": "p7N48: de novo peptide sequence based on p7, produced by ancestral reconstruction; SEQ ID NO:12 (protein)", "chain": "MTDTDDLLEMDRAHFFHPSTHLRDHASGELPGRIITGGKGIRIQDSEGREYIDAFAGLYCVNVGYGRTEIADAIYEQAKELAYYHTYVGHSNEPIIELSERIIREWAPAGMSKVYYGMSGSDANETQIKLVWYYNNVLGRPQKKKIISRQRGYHGSGIMTGSLTGLPAFHNHFDLPLEPIRHTTCPHYYRAPAGMSEAEFSRHCADELEKMILAEGPDTVAAFIGEPVMGTGGIVPPPEGYWEAIQAVLNKYDILLIADEVVCGFGRTGSMFGSHHYGMKPDLITVAKGLTSAYAPLSGVIVGEKVWKVLEQGSDQYGPIGHGWTYSGHPICAAAALANLDIIERENLTGNAADTGAYFQQRMRETFGDHPLVGEVRGVGLMAALEFVADKDKRTRFDPSLKVGPRVSAACLEDGMIARAMPHGDILGFAPPLVITRAEVDEIVDIAKQAVDAVADELV", "modifications": "Molecule produced by ancestral reconstruction"}},
  "key": {"[1]": {"assay": "Solubility of the substrates in the alanine dehydrogenase-coupled kinetic assay", "type": "physicochemical", "conditions": "assay buffer; kinetic parameters cannot be determined", "from_the_text": "(§1) The alanine dehydrogenase-coupled assay has been used to determine some early kinetic parameters for p6 and p7. Reactions with C3 to C8 for p6 and C4 to CS have been fully characterised and show no clear trend in terms of reaction rate vs. carbon chain length. For C11 and C12, the solubility of the substrates is extremely low, and as such, kinetic parameters cannot be determined.\nas §1, with “all the aforementioned enzymes.” for “p6 and p7.”, “C8 for p7” for “CS”"}, "[2]": {"assay": "Coupled dehydrogenase assays for transaminase activity of the Pseudomonas sp. proteins and ancestral reconstructions", "type": "biochemical", "conditions": "for pH optimum: UV absorbance at 340 nm, pH range 7.5-10; for pH optimum / activity with ω-amino acids including long chain C11 and C12: 28° C.; for activity with ω-amino acids including long chain C11 and C12: 340 nm, pH 7.5-10; for activity of ancestral reconstruction proteins in the coupled assays: E. coli expressed, purified proteins", "experimental": "Activity for each protein was assessed using coupled dehydrogenase assays as described previously. A typical assay comprised:\nSubstrate (6.25 mM final concentration in potassium phosphate buffer)\nCo-substrate (pyruvate (0.5 mM final concentration) or α-KG (0.25 mM final concentration)\nNAD (1.25 mM final concentration)\nDehydrogenase (1 μL from ADH-≧35 units/mL stock solution or GDH≧35 units/mg protein stock)\nTransaminase (final concentration dependent)\nPotassium phosphate buffer (100 mM)\nUV absorbance at 340 nm was recorded at 28° C. over a pH range of 7.5-10 with a range of substrates.\nProteins encoded by p7N6, p7N15, p7N16, p7N17, p7N43 and p7N48 were expressed using an E. coli recombinant expression platform and subsequently purified.\nEach of the proteins were assayed for substrate specificity. Substrates identified by assaying for each of the proteins are summarized below."}},
  "data": [
    {"molecule": "NCCCCCCCCCCC(=O)O", "note": "[C11, 11-aminoundecanoic acid]", "values": [
      {"measurement": "solubility of the substrates", "setting": "[1]", "result": "extremely low"}
    ]},
    {"molecule": "NCCCCCCCCCCCC(=O)O", "note": "[C12, 12-aminododecanoic acid]", "values": [
      {"measurement": "solubility of the substrates", "setting": "[1]", "result": "extremely low"}
    ]},
    {"molecule": "B1", "values": [
      {"measurement": "pH optimum", "setting": "[2]", "result": "~10"},
      {"measurement": "smallest substrate accepted", "setting": "[2]; coupled dehydrogenase assay", "result": "C4 (γ-aminobutyrate; GABA)"},
      {"measurement": "activity with ω-amino acids including long chain C11 and C12", "setting": "[2]; coupled dehydrogenase assay", "result": "shown the desired activity with ω-amino acids, notably including long chain amino acids C11 and C12"}
    ]},
    {"molecule": "B2", "values": [
      {"measurement": "activity of ancestral reconstruction proteins in the coupled assays", "setting": "[2]", "result": "activity in accordance with p7"}
    ]},
    {"molecule": "B3", "values": [
      {"measurement": "pH optimum", "setting": "[2]", "result": "~10"},
      {"measurement": "activity with ω-amino acids including long chain C11 and C12", "setting": "[2]; coupled dehydrogenase assay", "result": "shown the desired activity with ω-amino acids, notably including long chain amino acids C11 and C12"}
    ]},
    {"molecule": "B4", "values": [
      {"measurement": "activity of ancestral reconstruction proteins in the coupled assays", "setting": "[2]", "result": "activity in accordance with p7"}
    ]},
    {"molecule": "B5", "values": [
      {"measurement": "activity of ancestral reconstruction proteins in the coupled assays", "setting": "[2]", "result": "activity in accordance with p7"}
    ]},
    {"molecule": "B6", "values": [
      {"measurement": "activity of ancestral reconstruction proteins in the coupled assays", "setting": "[2]", "result": "activity in accordance with p7"}
    ]},
    {"molecule": "B7", "values": [
      {"measurement": "activity of ancestral reconstruction proteins in the coupled assays", "setting": "[2]", "result": "activity in accordance with p7"}
    ]},
    {"molecule": "B8", "values": [
      {"measurement": "activity of ancestral reconstruction proteins in the coupled assays", "setting": "[2]", "result": "activity in accordance with p7"}
    ]}
  ]
}
